Patent US8383581B2, “Short-chain peptides as parathyroid hormone (PTH) receptor agonist” (Cadila Healthcare Limited, priority 2009, dated 2013)
Where no end group is shown, it is not given here. [ ]: non-standard residue; d: D form. Arg(NO2) = N=C(NCCC[C@H](N)C(=O)O)N[N+](=O)[O-]; αMePhe(2,6-F2) = C[C@](N)(Cc1c(F)cccc1F)C(=O)O; αMePhe(2-F) = C[C@](N)(Cc1ccccc1F)C(=O)O; hArg = N=C(N)NCCCC[C@H](N)C(=O)O; αMeF = C[C@](N)(Cc1ccccc1)C(=O)O; Cit = NC(=O)NCCC[C@H](N)C(=O)O; Nle = CCCC[C@H](N)C(=O)O; Orn = NCCC[C@H](N)C(=O)O; Ac5c = NC1(C(=O)O)CCCC1; Ac3c = NC1(C(=O)O)CC1; Aib = CC(C)(N)C(=O)O

T1: rat PTH-1R (rat PTHR endogenously expressed on UMR-106 rat osteosarcoma cells) (rat, UniProt P25961 27-591)
T1 sequence (looked up): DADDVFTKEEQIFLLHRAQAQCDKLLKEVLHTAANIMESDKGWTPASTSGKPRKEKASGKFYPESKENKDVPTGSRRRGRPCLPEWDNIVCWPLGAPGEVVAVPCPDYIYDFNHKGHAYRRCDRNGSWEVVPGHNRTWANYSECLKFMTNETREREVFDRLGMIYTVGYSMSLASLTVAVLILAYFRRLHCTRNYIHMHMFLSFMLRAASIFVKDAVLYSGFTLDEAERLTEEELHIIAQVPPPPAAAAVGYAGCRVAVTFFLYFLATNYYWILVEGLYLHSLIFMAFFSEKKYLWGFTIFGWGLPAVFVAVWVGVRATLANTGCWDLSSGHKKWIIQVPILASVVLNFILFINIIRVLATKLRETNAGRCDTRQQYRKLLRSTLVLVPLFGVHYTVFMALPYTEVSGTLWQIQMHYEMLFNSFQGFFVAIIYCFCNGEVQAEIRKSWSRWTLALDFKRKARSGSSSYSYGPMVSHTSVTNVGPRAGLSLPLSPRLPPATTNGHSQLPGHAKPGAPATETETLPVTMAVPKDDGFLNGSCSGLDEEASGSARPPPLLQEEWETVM


Molecular target: T1, rat PTH-1R (rat PTHR endogenously …)
Test: cell-based or functional assay

| Binder | cAMP released with respect to control, 1 nM peptide, UMR-106 cells | cAMP released with respect to control, 10 nM peptide, UMR-106 cells | cAMP released with respect to control, 100 nM peptide, UMR-106 cells |
| --- | --- | --- | --- |
| [Aib]V[Aib]EIQ[αMePhe(2-F)][Nle]HQ[Cit][Aib][Cit][αMePhe(2-F)] [Seq. ID. 346] | 21 percent of control | 51 percent of control | 69 percent of control |
| [Aib]V[Aib]EIQ[αMePhe(2-F)][Nle]HQ[Orn][Aib][Arg(NO2)][αMePhe(2-F)] [Seq. ID. 330] | 18 percent of control | 51 percent of control | 72 percent of control |
| [Ac5c]V[Ac5c]EIQ[αMePhe(2,6-F2)][Nle]HQ[hArg][Aib][Aib][αMePhe(2,6-F2)] [Seq. ID. 198] | 32 percent of control | 71 percent of control | 99 percent of control |
| [Aib]V[Aib]EIQ[αMePhe(2,6-F2)][Nle]HQ[hArg]A[Arg(NO2)][αMePhe(2,6-F2)] [Seq. ID. 271] | 46 percent of control | 108 percent of control | 116 percent of control |
| [Ac5c]V[Ac5c]EIQ[αMePhe(2,6-F2)][Nle]HQ[hArg][Aib][αMePhe(2,6-F2)][αMePhe(2,6-F2)] [Seq. ID. 238] | 38 percent of control | 91 percent of control | 120 percent of control |
| [Aib]V[Aib]EIQ[αMePhe(2,6-F2)][Nle]HQ[hArg][Aib][αMePhe(2,6-F2)][αMePhe(2-F)] [Seq. ID. 212] | 34 percent of control | 88 percent of control | 116 percent of control |
| [Ac5c]V[Aib]EIQ[αMePhe(2,6-F2)][Nle]HQ[Orn]A[Aib][αMePhe(2,6-F2)] [Seq. ID. 311] | 26 percent of control | 68 percent of control | 86 percent of control |
| [Ac5c]V[Aib]EIQ[αMePhe(2-F)][Nle]HQ[Orn][Aib][Cit][αMePhe(2,6-F2)] [Seq. ID. 292] | 39 percent of control | 104 percent of control | 120 percent of control |
| [Ac3c]V[Aib]EIQL[Nle]HQ[hArg][Aib]K[αMeF] [Seq. ID. 15] | 28 percent of control | 78 percent of control | 99 percent of control |
| [Aib]V[Aib]EIQ[αMePhe(2,6-F2)][Nle]HQ[Orn]A[αMePhe(2,6-F2)][αMePhe(2,6-F2)] [Seq. ID. 325] | 38 percent of control | 98 percent of control | 116 percent of control |
| [Ac5c]V[Aib]EIQ[αMePhe(2,6-F2)][Nle]HQ[Cit]A[Cit][αMePhe(2-F)] [Seq. ID. 351] | 38 percent of control | 79 percent of control | 119 percent of control |
| [Aib]V[Ac5c]EIQ[αMePhe(2,6-F2)][Nle]HQ[hArg][Aib][Arg(NO2)][αMePhe(2-F)] [Seq. ID. 256] | 28 percent of control | 71 percent of control | 87 percent of control |
